Experiment [1] relates to DU-145 cells. Briefly: Modified Boyden chamber cell migration assay. The experiment is classed as cell-based, human. The protocol: FIGS. 2(A-E) illustrate EphA activation inhibited DU-145 cell migration. (A) Expression of c-Met is elevated in cell lines derived from more malignant prostate cancer. Total cellular proteins were immunoblotted with anti-human c-Met. An anti-tubulin blot was used as a control for protein loading. (B) In a modified Boyden chamber assay, DU-145 cells were placed in the upper chamber and allowed to migrate to the lower chamber containing indicated reagents. After 8 hours, cells were stained with crystal violet and cells remaining in the upper chamber were removed. Top panel: Cells migrated to the undersides of membrane were counted; six high power fields were counted. Results represent means±S.D. Representative fields were shown in the lower panel. (C) Ephrin-A1-Fc inhibits DU-145 cell migration when HGF/SF was uniformly presented in both sides of membranes. The experiment was carried out as described in A. (D) Inhibition of cell scattering by immobilized ephrin-A1 in a SOIL assay (Method). Ephrin-A1-Fc or control Fc was immobilized on 6-well culture dishes. Freshly confluent DU-145 cells on cover slips were transferred to the coated surfaces. Cells were stimulated with HGF/SF to induce migration off the cover slips to immobilized Fc or ephrin-A1-Fc. After 48 hours, cells were fixed and stained with crystal violet. The cells that had migrated to the coated surface were photographed after removing cover slips. (E) DU-145 cells were grown to confluency and a wound was generated by scratching monolayer with a 200 μl pipette tip. The wound healing was recorded prior to and 12 hours after the addition of Fc, ephrin-A1-Fc (1 μg/ml) and/or HGF/SF (20 ng/ml). Representative results from 3 independent experiments are shown.
Modified Boyden chambers of 8 μm pore size (Costar) were used for migration assay. Both sides of the membranes were coated with 10 μg/ml collagen at 4° C. overnight. […] Cells migrated to the underside of the membrane were counted under 200× magnification.

Experiment [2] deals with Akt and ERK. Briefly: Akt and ERK activities in DU145 cells expressing WT or dominant negative EphA2. Format: cell-based, human. The conditions noted are these: DU145 with dominant negative EphA2. The source says: FIGS. 46(A-D) illustrate A) EphA2 is overexpressed in osseous but not lymph node metastases of human prostate cancer specimens obtained from rapid autopsy. […] DU145 cells were infected with a retroviral vector expressing wild type (WT) or a dominant negative mutant EphA2 where the entire cytoplasmic tail was replaced with GFP. An antibody against the ectodomain of EphA2 was used to determine the expression of endogenous (vector control), WT- and DN-EphA2. D) Upregulation of EphA2 by Ras but not Myc oncogene in NRP152 normal rat prostate epithelial cells.
We observed that EphA2 is overexpressed in osseous but not lymph node metastases of human prostate cancer specimens obtained from rapid autopsy (FIG. 46A). […] DU145 cells were infected with a retroviral vector expressing wild type (WT) or a dominant negative mutant EphA2 where the entire cytoplasmic tail was replaced with GFP. An antibody against the ectodomain of EphA2 was used to determine the expression of endogenous (vector control), WT- and DN-EphA2 (FIG. 46C). We further observed upregulation of EphA2 by Ras but not Myc oncogene in NRP152 normal rat prostate epithelial cells (FIG. 46D).

Experiment [3] deals with EphA2 (Homo sapiens, UniProt P29317). Briefly: EphA2 activation and ERK status in DU-145 cells. The experiment is classed as cell-based. The arrangement: endogenous in cells; host or cells: DU-145 cells. The protocol:
FIGS. 1(A-D) illustrate (A) EphA2 is the primary EphA kinase expressed on human prostate cancer cells. Cell surface proteins were labeled with membrane impermeable biotin (Method). Top panel: Saturating amount of ephrin-A1-Fc (EA1-Fc) was used to precipitate most EphA kinases. Lower panel: EphA2 was first immunodepleted from cell lysates with an EphA2-specific antibody. Saturating amount of ephrin-A1-Fc was then added to the EphA2-depleted cell lysates to precipitate other members of EphA kinases. The precipitates were subject immunoblot with HRP-labeled avidin. (B) Expression of EphA2, but not other EphA kinases and ephrin-As, is elevated in cell lines derived from more malignant prostate cancer. Total cellular proteins were immunoblotted with the indicated antibodies. (C) Immunofluorescence staining of EphA2. Human prostate cancer cells grown on cover slip were stained with anti-EphA2 antibody. Texas-Red labeled secondary was used to visualize the bound primary antibody. […] To determine the ERK activation status, total cell lysates were analyzed by immunoblot using anti-phospho ERK (p-ERK) antibody. […]
Cells cultured in 6 well plates at 70-80% confluence were stimulated with 0.5 μg/ml Fc, 1 μg/ml epnrinA1-Fc or 20 ng/ml HGF/SF or their combinations as indicated. […] For quantitative analysis, band densities were measured using KODAK 1D imagine analysis software (Eastman Kodak Company).

Sequence of EphA2 (P29317 24-976): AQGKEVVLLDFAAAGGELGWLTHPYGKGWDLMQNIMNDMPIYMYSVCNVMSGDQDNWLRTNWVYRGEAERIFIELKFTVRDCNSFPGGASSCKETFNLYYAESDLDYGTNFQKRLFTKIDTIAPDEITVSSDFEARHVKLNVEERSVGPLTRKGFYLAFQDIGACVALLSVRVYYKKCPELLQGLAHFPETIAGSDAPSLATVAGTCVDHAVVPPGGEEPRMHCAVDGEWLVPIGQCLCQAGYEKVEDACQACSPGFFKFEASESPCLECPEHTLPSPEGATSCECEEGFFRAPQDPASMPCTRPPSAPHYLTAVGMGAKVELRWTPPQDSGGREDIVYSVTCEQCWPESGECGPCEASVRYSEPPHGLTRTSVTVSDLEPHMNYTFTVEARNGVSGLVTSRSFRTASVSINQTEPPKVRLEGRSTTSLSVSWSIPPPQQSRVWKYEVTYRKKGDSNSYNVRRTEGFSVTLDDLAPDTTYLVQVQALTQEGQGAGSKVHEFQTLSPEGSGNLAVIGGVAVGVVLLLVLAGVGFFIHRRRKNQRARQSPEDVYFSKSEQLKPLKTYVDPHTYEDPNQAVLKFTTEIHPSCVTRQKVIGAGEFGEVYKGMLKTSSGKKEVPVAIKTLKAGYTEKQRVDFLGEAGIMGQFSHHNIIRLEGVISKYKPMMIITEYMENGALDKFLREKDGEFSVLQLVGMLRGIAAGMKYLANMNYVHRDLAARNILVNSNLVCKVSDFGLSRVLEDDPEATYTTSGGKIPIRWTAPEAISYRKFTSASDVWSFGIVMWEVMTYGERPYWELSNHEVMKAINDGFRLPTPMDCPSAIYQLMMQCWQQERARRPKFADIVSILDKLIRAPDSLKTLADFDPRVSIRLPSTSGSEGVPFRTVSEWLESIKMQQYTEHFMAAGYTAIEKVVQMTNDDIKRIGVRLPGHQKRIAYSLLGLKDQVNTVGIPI

B1: ephrin-A1-Fc: ephrin-A1 dimerized by fusion to the heavy chain of human IgG1 (protein)
chain: DRHTVFWNSSNPKFRNEDYTIHVQLNDYVDIICPHYEDHSVADAAMEQYILYLVEHEEYQLCQPQSKDQVRWQCNRPSAKHGPEKLSEKFQRFTPFTLGKEFKEGHSYYYISKPIHQHEDRCLRLKVTVSGKITHSPQAHDNPQEKRLAADDPEVRVLHSIGHS
modifications: left off: a dimerising Fc or GST
notes: ephrin-A1 dimerized by fusion to the heavy chain of human IgG1
For B1, the “cell migration with HGF/SF on both sides” value in experiment [1] (HGF/SF both sides, ligand in lower chamber only) is recorded as “significantly reduced the number of cells migrated”. The HGF/SF-stimulated cell migration result in experiment [1] (HGF/SF in lower chamber) was “potently inhibited”. Further, the basal cell migration result in experiment [1] (lower chamber, 1 μg/ml, 8 hours, vs Fc) is given as “reduced the basal level of cell migration”. The “Akt and ERK activities” value in experiment [2] is “abolished the inhibitory effects”. In experiment [3], the ERK1/2 activity entry is given as “reduced” and the “EphA2 activation, time course” value was “readily occurred in two minutes”.

For the origin of these results see patent US10434074B2, “Peptide and small molecule agonists of EPHA and uses thereof” (CASE WESTERN RESERVE UNIVERSITY, priority 2004, dated 2019).
